# Experimental data from patent publication US20250375541A1, “RADIOPHARMACEUTICAL COMPOSITION AND METHODS” (Ariceum Therapeutics GmbH, priority 2024, published 2025).
# Assay: Stability of the radiopharmaceutical composition: radiochemical purity by radio-TLC over time from EoP
# Assay type: physicochemical
# Settings: Tris pH 8.0, sodium ascorbate formulation
# Protocol: Upon reaction completion, the mixture was directly cooled down with formulation solution (123.7 mg/mL sodium ascorbate buffer) to yield a 20 mL [^225Ac]Ac-DOTA-satoreotide stock solution. Reaction completion is referred to as the “end-of-production” (EoP) time, or t=0 h as used in the following results.
# This was determined by radio TLC as set out below.
# Radio-TLC was performed at T=0 h and at various time points subsequent to the radiolabeling procedure. To run the procedure, 5 μL of reaction solution was spotted on a TLC plate (RP-C18 silica glass plates) at about 1.5 cm from bottom edge. The TLC plate was developed using a mobile phase mixture of ammonium acetate 25% and methanol (40:60 Vol.-%) with an elution length of about 5-6 cm. The TLC plate was dried and measured on a phosphor imager (Perkin Elmer Cyclone Plus Storage Phosphor system) once secular equilibrium of ^225Ac and ^221Fr/^213Bi was reached (>6 hours after development). Free Ac(III) stays at the origin while ^225Ac-DOTA-Satoreotide travels with the eluent front.
# In FIG. 1, “T=Xh, read Yh” means that a sample was taken and developed at T=Xh but analyzed Yh after development of the TLC plate, to account for equilibrium of the daughters.
substance,measurement,setting,value
[^225Ac]Ac-DOTA-satoreotide,radiochemical purity,after 168 hours (from EoP) at ambient temperatures,95.8%
same,radiochemical purity,at 96 h from EoP,98.9%
